In the assay the target is SNAP-mGluR3 (rat), P31422. The assay is described as follows: single-molecule pulldown (SiMPull) with subunit counting by photobleaching steps; surface receptors labelled with BG-LD555 on HEK 293T cells, lysed in 1.2% IGEPAL, diluted in 0.1% IGEPAL, immobilised by biotinylated anti-HA antibody on a PEG-passivated coverslip, TIRF imaging; SNAP labelling efficiency ~80%; background two-step bleaching ~5-10%. Conditions: remark: other sources report otherwise.

The record followed here is paper PMC6588349, “Conformational dynamics between transmembrane domains and allosteric modulation of a metabotropic glutamate receptor” (eLife, 2019).

B1: SNAP-mGluR3, P31422 23-879 (receptor)
chain: LGDHNFMRREIKIEGDLVLGGLFPINEKGTGTEECGRINEDRGIQRLEAMLFAIDEINKDNYLLPGVKLGVHILDTCSRDTYALEQSLEFVRASLTKVDEAEYMCPDGSYAIQENIPLLIAGVIGGSYSSVSIQVANLLRLFQIPQISYASTSAKLSDKSRYDYFARTVPPDFYQAKAMAEILRFFNWTYVSTVASEGDYGETGIEAFEQEARLRNICIATAEKVGRSNIRKSYDSVIRELLQKPNARVVVLFMRSDDSRELIAAANRVNASFTWVASDGWGAQESIVKGSEHVAYGAITLELASHPVRQFDRYFQSLNPYNNHRNPWFRDFWEQKFQCSLQNKRNHRQVCDKHLAIDSSNYEQESKIMFVVNAVYAMAHALHKMQRTLCPNTTKLCDAMKILDGKKLYKEYLLKINFTAPFNPNKGADSIVKFDTFGDGMGRYNVFNLQQTGGKYSYLKVGHWAETLSLDVDSIHWSRNSVPTSQCSDPCAPNEMKNMQPGDVCCWICIPCEPYEYLVDEFTCMDCGPGQWPTADLSGCYNLPEDYIKWEDAWAIGPVTIACLGFLCTCIVITVFIKHNNTPLVKASGRELCYILLFGVSLSYCMTFFFIAKPSPVICALRRLGLGTSFAICYSALLTKTNCIARIFDGVKNGAQRPKFISPSSQVFICLGLILVQIVMVSVWLILETPGTRRYTLPEKRETVILKCNVKDSSMLISLTYDVVLVILCTVYAFKTRKCPENFNEAKFIGFTMYTTCIIWLAFLPIFYVTSSDYRVQTTTMCISVSLSGFVVLGCLFAPKVHIVLFQPQKNVVTHRLHLNRFSVSGTATTYSQSSASTYVPTVCNGREVLDSTTSSL
modifications: here or on the partner: SNAP tag labelled with BG-LD555; SNAP tag labelled with BG-LD555
Turning to B1, the percent of spots bleaching in two steps came to 48.9% and the stoichiometry N is 2.

A word on the stoichiometry N: it is the number of molecules, sites or subunits per partner or assembly.
